Experimental data reported in publication PMC10709064, “The leucine zipper domain of the transcriptional repressor Opi1 underlies a signal transduction mechanism regulating lipid synthesis” (The Journal of Biological Chemistry, 2023).
One block for each binder: values may come before it.

B1: MBP-N-Opi1^WT (maltose-binding protein fused to the N-terminal Opi1^1-190 polypeptide) (domain or fragment, S. cerevisiae, UniProt P21957 1-190, looked up)
chain: MSENQRLGLSEEEVEAAEVLGVLKQSCRQKSQPSEDVSQADKMPASESSTTPLNILDRVSNKIISNVVTFYDEINTNKRPLKSIGRLLDDDDDEHDDYDYNDDEFFTNKRQKLSRAIAKGKDNLKEYKLNMSIESKKRLVTCLHLLKLANKQLSDKISCLQDLVEKEQVHPLHKQDGNARTTTGAGEDET
notes: Opi1, S. cerevisiae, N terminus from aa1 to aa190 (N-Opi1), holds the leucine zipper (aa 139-166); pMAL-c expression vector; also called N-Opi1^1-190; source: for SEC further run on Superdex 200 Increase; not shown: MBP, N-terminal, kept

Tests used:
[1] = biological target: the molecule itself; experiment: SEC; 0.5 mg of affinity-purified MBP fusion on Superdex 200 Increase 10/300 GL, 20 mM Tris-HCl pH 7.4, 150 mM NaCl, 0.5 ml/min; molecular weights estimated from calibration markers
[2] = biological target: T1, MBP-N-Opi1^3L (L146A, L153S, L160A) (S. cerevisiae, UniProt P21957 1-190, L146A | L153S | L160A); experiment: pull-down; as the pull-down with alternate tags, but binding reactions carried out at decreasing reactant concentrations (relative volume of the binding reaction varied); prey detected by Western blot; conditions: both partners purified
T1 construct: Opi1, S. cerevisiae, N terminus from aa1 to aa190 (N-Opi1) with the 3L mutations L146A L153S L160A; pMAL-c expression vector; not shown: MBP, N-terminal, kept
T1 sequence (looked up): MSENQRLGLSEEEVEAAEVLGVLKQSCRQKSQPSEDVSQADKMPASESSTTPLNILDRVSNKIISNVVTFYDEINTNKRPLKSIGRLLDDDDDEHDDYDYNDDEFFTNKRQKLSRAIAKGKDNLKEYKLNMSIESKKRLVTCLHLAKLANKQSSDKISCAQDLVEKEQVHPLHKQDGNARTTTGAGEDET

[3] = biological target: T2, MBP-N-Opi1^N150D (S. cerevisiae, UniProt P21957 1-190, N150D); experiment: as above; conditions: both partners purified
T2 construct: Opi1, S. cerevisiae, N terminus from aa1 to aa190 (N-Opi1) with N150D; pMAL-c expression vector; amplified from mutant OPI1 DNA template; source: for SEC further run on Superdex 200 Increase; not shown: MBP, N-terminal, kept
T2 sequence (looked up): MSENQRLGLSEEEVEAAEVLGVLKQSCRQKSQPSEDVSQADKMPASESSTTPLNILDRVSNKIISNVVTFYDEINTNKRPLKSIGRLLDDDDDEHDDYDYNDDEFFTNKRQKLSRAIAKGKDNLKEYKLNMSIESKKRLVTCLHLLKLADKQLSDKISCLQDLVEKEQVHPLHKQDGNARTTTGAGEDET

[4] = biological target: B1; experiment: as above; conditions: both partners purified
[5] = biological target: T3, GST-N-Opi1^3L (L146A, L153S, L160A) (S. cerevisiae, UniProt P21957 1-190, L146A | L153S | L160A); experiment: as above; conditions: both partners purified
T3 construct: Opi1, S. cerevisiae, N terminus from aa1 to aa190 (N-Opi1) with the 3L mutations L146A L153S L160A; pGEX-4T-1 expression vector; not shown: GST, N-terminal, kept
T3 sequence (looked up): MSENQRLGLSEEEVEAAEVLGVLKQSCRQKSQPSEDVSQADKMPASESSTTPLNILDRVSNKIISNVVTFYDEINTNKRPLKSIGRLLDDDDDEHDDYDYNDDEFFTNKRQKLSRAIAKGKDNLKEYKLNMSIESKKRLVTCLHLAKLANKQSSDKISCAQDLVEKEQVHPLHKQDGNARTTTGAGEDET

[6] = biological target: T4, GST-N-Opi1^N150D (S. cerevisiae, UniProt P21957 1-190, N150D); experiment: as above; conditions: both partners purified
T4 construct: Opi1, S. cerevisiae, N terminus from aa1 to aa190 (N-Opi1) with N150D; pGEX-4T-1 expression vector; not shown: GST, N-terminal, kept
T4 sequence (looked up): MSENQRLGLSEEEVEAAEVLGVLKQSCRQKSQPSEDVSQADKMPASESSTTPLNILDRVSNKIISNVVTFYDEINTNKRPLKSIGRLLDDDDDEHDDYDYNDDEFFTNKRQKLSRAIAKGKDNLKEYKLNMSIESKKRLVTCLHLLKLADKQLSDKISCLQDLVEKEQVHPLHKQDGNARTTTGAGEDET

[7] = biological target: T5, GST-N-Opi1^WT (glutathione-S-transferase fused to Opi1 aa1-190) (S. cerevisiae, UniProt P21957 1-190); experiment: pull-down; around 0.5 ug bait on amylose resin or glutathione-Sepharose with 1.5 ug prey of the alternate tag in 100 ul binding buffer (20 mM Tris-HCl pH 8, 150 mM NaCl, 1 mM EDTA, 1 mM DTT, 20% glycerol, 0.05% Triton X-100) with 50 ug/ml BSA, 2 h at 4 C; bait eluted with its ligand, prey detected by Western blot against MBP or GST; conditions: both partners purified
T5 construct: Opi1, S. cerevisiae, N terminus from aa1 to aa190 (N-Opi1), holds the leucine zipper (aa 139-166); pGEX-4T-1 expression vector; also called N-Opi1^1-190; not shown: GST, N-terminal, kept
T5 sequence (looked up): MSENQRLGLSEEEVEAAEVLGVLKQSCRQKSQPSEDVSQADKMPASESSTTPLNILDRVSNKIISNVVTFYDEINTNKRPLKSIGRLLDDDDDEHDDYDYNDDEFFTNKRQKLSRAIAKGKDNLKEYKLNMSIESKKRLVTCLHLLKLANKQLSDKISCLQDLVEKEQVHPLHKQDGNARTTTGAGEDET

Binder: B1
stoichiometry N [1]: ~2

B4: GST-C-Opi1^S339F (domain or fragment, S. cerevisiae, UniProt P21957 291-404, looked up)
chain: QQQQQQQQLLQQQLLQQQQQKRNKDGDDSASPSSSVTANGKVLILAKEFLEMVRNVMGVVDSTLGKAEEWVKQKQEVKEMIRERFLQQQQQYRQQQQKDGNYVKPSQDNVDSKD
notes: Opi1, S. cerevisiae, C terminus from aa291 to aa404 (C-Opi1) with S339F; pGEX-4T-1 expression vector; loss of function mutation known from earlier genetic work; not shown: GST, N-terminal, kept
binding result [4]: binds

The remaining lines, values ahead:

binding result [2]: binds | binding result [3]: binds | binding result [4]: binds
B2: GST-C-Opi1^WT (glutathione-S-transferase fused to Opi1 aa291-404) (domain or fragment, S. cerevisiae, UniProt P21957 291-404, looked up)
chain: QQQQQQQQLLQQQLLQQQQQKRNKDGDDSASPSSSVTANGKVLILAKESLEMVRNVMGVVDSTLGKAEEWVKQKQEVKEMIRERFLQQQQQYRQQQQKDGNYVKPSQDNVDSKD
notes: Opi1, S. cerevisiae, C terminus from aa291 to aa404 (C-Opi1), holds the AID (aa 321-379); pGEX-4T-1 expression vector; also called C-Opi1^291-404; Opi1^291-404; not shown: GST, N-terminal, kept

binding result [5]: binds | binding result [6]: binds | binding result [7]: binds
B3: MBP-C-Opi1^WT (maltose-binding protein fused to Opi1 aa291-404) (domain or fragment, S. cerevisiae, UniProt P21957 291-404, looked up)
chain: QQQQQQQQLLQQQLLQQQQQKRNKDGDDSASPSSSVTANGKVLILAKESLEMVRNVMGVVDSTLGKAEEWVKQKQEVKEMIRERFLQQQQQYRQQQQKDGNYVKPSQDNVDSKD
notes: Opi1, S. cerevisiae, C terminus from aa291 to aa404 (C-Opi1), holds the AID (aa 321-379); pMAL-c expression vector; also called C-Opi1^291-404; Opi1^291-404; not shown: MBP, N-terminal, kept

binding result [4]: binds
B5: GST-C-Opi1^V343E (domain or fragment, S. cerevisiae, UniProt P21957 291-404, looked up)
chain: QQQQQQQQLLQQQLLQQQQQKRNKDGDDSASPSSSVTANGKVLILAKESLEMERNVMGVVDSTLGKAEEWVKQKQEVKEMIRERFLQQQQQYRQQQQKDGNYVKPSQDNVDSKD
notes: Opi1, S. cerevisiae, C terminus from aa291 to aa404 (C-Opi1) with V343E; pGEX-4T-1 expression vector; loss of function mutation known from earlier genetic work; not shown: GST, N-terminal, kept
